# Measurements from patent US20260008817A1, “CYCLIC PEPTIDE OR SALT THEREOF, AND USES THEREOF” (FUJIFILM Corporation, priority 2023, published 2026).
# Positions of bridges follow the written chain, without caps; N, C: chain ends. No end group written: not given here. COCH2 = acetyl group that carries the bridge
# Target: T1, Recombinant Human FGFR1 alpha (IIIc) Fc Chimera Protein (Homo sapiens, UniProt P11362)
# T1 construct: purchased R&D systems 658-FR-050
# Assay: ELISA binding affinity of enzymatically synthesized peptide to FGFR
# Conditions: ELISA luminescence signal at 10 nmol/L peptide, SEQ ID NO: 239 standardized to 1; enzyme synthesis product
# Summary of the method: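 Cell-free PUREfrex-translated cyclic peptides (Myc/HiBiT-tagged, quantified by HiBiT luminescence) bound 3 h at room temperature to immobilized FGFR1α(IIIc)-Fc, detected with anti-Myc and chemiluminescence. FGFR-specific signal at 10 nmol/L normalized to a reference cyclic peptide and graded A–D.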
# T1 sequence (P11362 with tags, fused parts or gaps limits assumed): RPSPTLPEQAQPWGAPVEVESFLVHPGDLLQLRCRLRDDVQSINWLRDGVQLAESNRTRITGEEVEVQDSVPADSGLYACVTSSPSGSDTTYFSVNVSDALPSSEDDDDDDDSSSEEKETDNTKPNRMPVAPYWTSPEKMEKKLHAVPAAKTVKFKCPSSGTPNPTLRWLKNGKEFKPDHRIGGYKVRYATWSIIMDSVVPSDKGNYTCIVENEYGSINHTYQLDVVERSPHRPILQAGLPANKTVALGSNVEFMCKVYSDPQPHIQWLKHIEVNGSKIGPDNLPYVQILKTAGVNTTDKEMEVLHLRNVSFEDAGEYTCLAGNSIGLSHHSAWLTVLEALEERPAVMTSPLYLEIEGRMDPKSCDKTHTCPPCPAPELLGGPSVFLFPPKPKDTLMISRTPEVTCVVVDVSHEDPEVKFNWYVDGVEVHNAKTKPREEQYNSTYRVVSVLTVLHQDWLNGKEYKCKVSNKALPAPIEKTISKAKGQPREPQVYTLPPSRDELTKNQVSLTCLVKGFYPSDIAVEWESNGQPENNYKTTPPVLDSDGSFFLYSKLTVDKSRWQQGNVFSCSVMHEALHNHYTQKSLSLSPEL
row,Substance,Evaluation result of binding affinity to FGFR
1,269 (HCLWQWTPQTHFVKL; Description of Artificial Sequence: Cyclic peptide) [compound 269],A (0.7 or more)
2,270 (QCWWTLQVWSYPFHKH; Description of Artificial Sequence: Cyclic peptide) [compound 270],C (0.1 or more and less than 0.5)
3,271 (LCQLGVYTYVALFYKF; Description of Artificial Sequence: Cyclic peptide) [compound 271],C (0.1 or more and less than 0.5)
4,272 (QCDWVIWQWDPPYIKV; Description of Artificial Sequence: Cyclic peptide) [compound 272],C (0.1 or more and less than 0.5)
5,273 (PCWWATQIWTYPFYKV; Description of Artificial Sequence: Cyclic peptide) [compound 273],C (0.1 or more and less than 0.5)
6,274 (FCIYTFSRESGLLWKQ; Description of Artificial Sequence: Cyclic peptide) [compound 274],A (0.7 or more)
7,275 (LCPLYAWQTLYQYGWK(COCH2)V; thioether 2-16 (inferred)) [compound 275],A (0.7 or more)
8,276 (ECIYTFDPQRHPVLVK(COCH2)V; thioether 2-16 (inferred)) [compound 276],C (0.1 or more and less than 0.5)
9,277 (TCPVWAWHQAFQFGWK(COCH2)I; thioether 2-16 (inferred)) [compound 277],C (0.1 or more and less than 0.5)
10,278 (ICPLYGDQGQAWQYGWK(COCH2)L; thioether 2-17 (inferred)) [compound 278],A (0.7 or more)
11,279 (QCLQKVGYLLWQFGWSK(COCH2)I; thioether 2-17 (inferred)) [compound 279],C (0.1 or more and less than 0.5)
12,280 (PCPVWGDYGAVHQYGWK(COCH2)V; thioether 2-17 (inferred)) [compound 280],A (0.7 or more)
13,281 (YCVYTFDAQDVWRPLRK(COCH2)V; thioether 2-17 (inferred)) [compound 281],C (0.1 or more and less than 0.5)
14,282 (FCIYSWNWNNLVRPEFRK(COCH2)V; thioether 2-18 (inferred)) [compound 282],C (0.1 or more and less than 0.5)
15,283 (WCWLIPTPWPGVYQFSPK(COCH2)A; thioether 2-18 (inferred)) [compound 283],B (0.5 or more and less than 0.7)
16,284 (QCRITLLTIYQWKYAWHK(COCH2)E; thioether 2-18 (inferred)) [compound 284],C (0.1 or more and less than 0.5)
17,285 (QCSWWYVQVWTYPFHVLK(COCH2)G; thioether 2-18 (inferred)) [compound 285],C (0.1 or more and less than 0.5)
18,286 (HCLWSLHSFYTFKAWAK(COCH2)I; thioether 2-17 (inferred)) [compound 286],C (0.1 or more and less than 0.5)
19,287 (YCPFEVYSWWVPKWHK(COCH2)I; thioether 2-16 (inferred)) [compound 287],C (0.1 or more and less than 0.5)
20,288 (LCHLVFQFNPDTGKLWPK(COCH2)Y; thioether 2-18 (inferred)) [compound 288],C (0.1 or more and less than 0.5)
21,289 (DCPWSVFSWYIPIYNK(COCH2)I; thioether 2-16 (inferred)) [compound 289],C (0.1 or more and less than 0.5)

row,Substance,Evaluation result of binding affinity to FGFR
1,290 (FCVYTFDANAQSLDDALNK(COCH2)Q; thioether 2-19 (inferred)) [compound 290],A (0.7 or more)
2,291 (ICVYTFDAHAHSLDDALTK(COCH2)I; thioether 2-19 (inferred)) [compound 291],A (0.7 or more)
3,"292 (ICVYTFDAHAHSLDAALNKI; not fully specified (residue 19, bridges)) [compound 292]",A (0.7 or more)
4,293 (ICVYTFDAHAHSLDAALTK(COCH2)V; thioether 2-19 (inferred)) [compound 293],A (0.7 or more)
5,294 (ICVYTFDAHAHSLDAALTK(COCH2)Q; thioether 2-19 (inferred)) [compound 294],A (0.7 or more)
6,"295 (ICVYTFDAHAHSLDAALNKV; not fully specified (residue 19, bridges)) [compound 295]",A (0.7 or more)
7,"296 (ICVYTFDAHAHSLDAALNKQ; not fully specified (residue 19, bridges)) [compound 296]",A (0.7 or more)
8,297 (ICVYTFDAHAHSLHDALNK(COCH2)I; thioether 2-19 (inferred)) [compound 297],A (0.7 or more)
9,298 (ICVYTFDAHAHSLHDALTK(COCH2)V; thioether 2-19 (inferred)) [compound 298],A (0.7 or more)
10,299 (ICVYTFDAHAHSLHDALTK(COCH2)Q; thioether 2-19 (inferred)) [compound 299],A (0.7 or more)
11,300 (ICVYTFDAHAHSLHDALNK(COCH2)V; thioether 2-19 (inferred)) [compound 300],A (0.7 or more)
12,301 (ICVYTFDAHAHSLHDALNK(COCH2)Q; thioether 2-19 (inferred)) [compound 301],A (0.7 or more)
13,302 (ICVYTFDAHAHSLDDALNK(COCH2)I; thioether 2-19 (inferred)) [compound 302],A (0.7 or more)
14,303 (ICVYTFDAHAHSLDDALTK(COCH2)V; thioether 2-19 (inferred)) [compound 303],A (0.7 or more)
15,304 (ICVYTFDAHAHSLDDALTK(COCH2)Q; thioether 2-19 (inferred)) [compound 304],A (0.7 or more)
16,305 (ICVYTFDAHAHSLDDALNK(COCH2)V; thioether 2-19 (inferred)) [compound 305],A (0.7 or more)
17,306 (ICVYTFDAHAHSLDDALNK(COCH2)Q; thioether 2-19 (inferred)) [compound 306],A (0.7 or more)
18,307 (FCVYTFDAHAHSLDAALTK(COCH2)I; thioether 2-19 (inferred)) [compound 307],A (0.7 or more)
19,308 (FCVYTFDAHAHSLHDALTK(COCH2)I; thioether 2-19 (inferred)) [compound 308],A (0.7 or more)
20,309 (FCVYTFDAHAHSLDDALTK(COCH2)I; thioether 2-19 (inferred)) [compound 309],A (0.7 or more)
21,310 (ICVYTFDAHAQSLDAALTK(COCH2)I; thioether 2-19 (inferred)) [compound 310],A (0.7 or more)
